According to US10260060B2, “Genetically modified phenylpyruvate decarboxylase, processes to prepare, and uses thereof” (Dow Global Technologies LLC, priority 2014, dated 2019):

Legend:
[1] = test system: Azospirillum brasilense phenylpyruvate decarboxylase (AbPPDC); conditions: Spaepen et al., J. Bacteriol., 2007; cited from earlier work
[2] = substrate: CCCCCCCC(=O)C(=O)O; test: HTP AbPPDC coupled enzyme assay (ADH6/NADPH), 2-ketoacid decarboxylation kinetics, Q536I; type: biochemical, Azospirillum brasilense; conditions: other: pH 6.8, 30° C, 2-ketoacid 0 to 4 mM, Michaelis-Menten equation, mean ± standard error
Method: (§1) The evaluation of the AbPPDC variants is performed in two steps using the high-throughput enzyme assay described hereinbelow. Initially, all the variants are tested for activity against a single high concentration (2 mM) of 2-KH and 2-KN (as shown in Table 1). Following the initial evaluation, detailed kinetic analysis is performed on a select number of variants to determine the maximal rate (kcat), substrate concentration yielding half maximal rate (K0.5, equivalent of KM for enzymes following Michaelis-Menten kinetics), and the catalytic efficiency of the enzyme (kcat/K0.5) against 2-KO and 2-KN (as shown in Table 2). AbPPDC variants, having higher specificity (higher kcat/K0.5) for 2-KN, will be efficient in producing octanal and chemicals derived from it inside the cells.
(§2) To evaluate the substrate specificity of the wild type AbPPDC and its variants listed in Table 1, genes of all the proteins are expressed in E. coli cells separately and the protein products are isolated from the cells. The gene sequence of the Azospirillum brasilense phenylpyruvate decarboxylase (GenBank: Accession no. L26240) is downloaded from the NCBI database. Codons of 13 additional amino acids that include six (6) histidines (his) are added upstream of the Met-1 codon of the AbPPDC gene sequence. Such a modification allows expression of a Histidine-tagged AbPPDC having 13 additional amino acids on the N-terminus. The additional amino acids are attached as an aid for purifying the protein in a single step using Ni-NTA chromatography. The entire AbPPDC sequence with 13 additional amino acids (SEQ ID 2) is chemically synthesized and then cloned into the pRSFDuet-1 vector (EMD Biosciences) downstream of the T7 polymerase promoter by Synthetic Genomics, Inc. (San Diego, Calif.). The final vector is sequenced by Synthetic Genomics, Inc. before shipping.
(§3) Genes of the AbPPDC variants listed in Table 1 are either chemically synthesized or generated using New England Biolab's Q5 Site-directed Mutagenesis Kit (cat. no. E0554S) and cloned into the pRSFDuet-1 vector. The pRSFDuet-1 vector containing AbPPDC or the AbPPDC variant gene is transformed into E. coli, AbPPDC or its variant, then expressed and eventually purified, as described below.
(§4) A high-throughput AbPPDC coupled enzyme assay is developed for evaluating the substrate specificity of AbPPDC variants. The assay involves reducing the aldehyde produced from AbPPDC mediated 2-ketoacid decarboxylation, using an alcohol dehydrogenase (ADH6, GenBank: Accession No. NP 014051.3). The initial velocities of the AbPPDC catalyzed reactions are determined from the rates of oxidation of reduced nicotinamide adenine dinucleotide phosphate (NADPH) occurring during the ADH6 catalyzed reduction of aldehyde.
(§5) The HTP screening assay involves incubating 2 mM 2-KH or 2 mM 2-KN with 0.5 mM thiamine diphosphate, 0.35 mM NADPH, 4.7 micrograms (μg) of yeast ADH6 (GenBank: Accession No. NP 014051.3) and 0.3 milligrams per milliliter (mg/mL) bovine serum albumin (BSA) in AbPPDC assay buffer (50 mM 3-(N-morpholino)propanesulfonic acid, pH 6.8, containing 2.5 mM magnesium chloride (MgCl2)) at 30° C. The reaction is started by addition at 30° C. of working enzyme stock containing from 0.5 μg to 3.5 μg of AbPPDC variant diluted in AbPPDC assay buffer containing 1 mg/mL BSA. The plate containing the 200 μL of reaction mixture is centrifuged at 2500×g for 15 sec and the absorbance change of the reaction mixture followed spectrophotometrically at 340 nm on a BioTek™ plate reader, pre-equilibrated at 30° C. Initial velocity of the enzyme reaction is calculated using the rate of NADPH consumption at 340 nm and the extinction coefficient of NADPH (6.22 mM^−1 cm^−1). The activity of all the variants is normalized with the amount of enzyme present in the reaction mixture and expressed as nanomoles per minute per milligram (nmol·min^−1·mg^−1). […]

[3] = substrate: CCCCCCC(=O)C(=O)O; test: as above; type: biochemical, Azospirillum brasilense; conditions: other: pH 6.8, 30° C, 2-ketoacid 0 to 4 mM, Michaelis-Menten equation, mean ± standard error
Method: as §1, §2, §3, §4, §5

[4] = substrate: CCCCCCCC(=O)C(=O)O; test: HTP AbPPDC coupled enzyme assay (ADH6/NADPH), 2-ketoacid decarboxylation kinetics, wild type; type: biochemical, Azospirillum brasilense; conditions: other: pH 6.8, 30° C, 2-ketoacid 0 to 4 mM, Hill equation, mean ± standard error
Method: as §1, §2, §4
(§6) The HTP screening assay involves incubating 2 mM 2-KH or 2 mM 2-KN with 0.5 mM thiamine diphosphate, 0.35 mM NADPH, 4.7 micrograms (μg) of yeast ADH6 (GenBank: Accession No. NP 014051.3) and 0.3 milligrams per milliliter (mg/mL) bovine serum albumin (BSA) in AbPPDC assay buffer (50 mM 3-(N-morpholino)propanesulfonic acid, pH 6.8, containing 2.5 mM magnesium chloride (MgCl2)) at 30° C. The reaction is started by addition at 30° C. of working enzyme stock containing from 0.5 μg to 3.5 μg of AbPPDC variant diluted in AbPPDC assay buffer containing 1 mg/mL BSA. The plate containing the 200 μL of reaction mixture is centrifuged at 2500×g for 15 sec and the absorbance change of the reaction mixture followed spectrophotometrically at 340 nm on a BioTek™ plate reader, pre-equilibrated at 30° C. Initial velocity of the enzyme reaction is calculated using the rate of NADPH consumption at 340 nm and the extinction coefficient of NADPH (6.22 mM^−1 cm^−1). The activity of all the variants is normalized with the amount of enzyme present in the reaction mixture and expressed as nanomoles per minute per milligram (nmol·min^−1·mg^−1). Protein concentrations for normalizing the activities are determined using the 660 nm total protein assay kit from Pierce Biotechnology Inc., available from Thermo Fisher Scientific, Inc., using BSA as the standard.
(§7) The kinetic parameters of the decarboxylation of 2-ketooctanoate (2-KO) and 2-ketononanoate (2-KN) by AbPPDC and its variants are also determined using the same HTP AbPPDC coupled enzyme assay, except that the concentrations of 2-KO or 2-KN are varied from 0 to 4 mM. […]

[5] = substrate: CCCCCCC(=O)C(=O)O; test: as above; type: biochemical, Azospirillum brasilense; conditions: other: pH 6.8, 30° C, 2-ketoacid 0 to 4 mM, Hill equation, mean ± standard error
Method: as §1, §2, §4, §6, §7

[6] = substrate: CCCCCCCC(=O)C(=O)O; test: HTP AbPPDC coupled enzyme assay (ADH6/NADPH), 2-ketoacid decarboxylation kinetics, F385L; type: biochemical, Azospirillum brasilense; conditions: other: pH 6.8, 30° C, 2-ketoacid 0 to 4 mM, Hill equation, mean ± standard error
Method: as §1, §2, §3, §4, §5

[7] = substrate: CCCCCCC(=O)C(=O)O; test: as above; type: biochemical, Azospirillum brasilense; conditions: other: pH 6.8, 30° C, 2-ketoacid 0 to 4 mM, Hill equation, mean ± standard error
Method: as §1, §2, §3, §4, §5

[8] = substrate: CCCCCCCC(=O)C(=O)O; test: HTP AbPPDC coupled enzyme assay (ADH6/NADPH), 2-ketoacid decarboxylation kinetics, M461L; type: biochemical, Azospirillum brasilense; conditions: other: pH 6.8, 30° C, 2-ketoacid 0 to 4 mM, Hill equation, mean ± standard error
Method: as §1, §2, §3, §4, §5

[9] = substrate: CCCCCCC(=O)C(=O)O; test: as above; type: biochemical, Azospirillum brasilense; conditions: other: pH 6.8, 30° C, 2-ketoacid 0 to 4 mM, Hill equation, mean ± standard error
Method: as §1, §2, §3, §4, §5

O=C(O)C(=O)Cc1ccccc1 [phenylpyruvic acid]
catalytic efficiency [1]: high catalytic efficiencies

B1: Azospirillum brasilense phenylpyruvate decarboxylase (AbPPDC) variant Q536I, SEQ ID 38 (Azospirillum brasilense; Q536I) (protein)
chain: MKLAEALLRALKDRGAQAMFGIPGDFALPFFKVAEETQILPLHTLSHEPAVGFAADAAARYSSTLGVAAVTYGAGAFNMVNAVAGAYAEKSPVVVISGAPGTTEGNAGLLLHHQGRTLDTQFQVFKEITVAQARLDDPAKAPAEIARVLGAARALSRPVYLEIPRNMVNAEVEPVGDDPAWPVDRDALAACADEVLAAMRSATSPVLMVCVEVRRYGLEAKVAELAQRLGVPVVTTFMGRGLLADAPTPPLGTYIGVAGDAEITRLVEESDGLFLLGAILSDTNFAVSQRKIDLRKTIHAFDRAVTLGYHTYADIPLAGLVDALLEGLPPSDRTTRGKEPHAYPTGLQADGEPIAPMDIARAVNDRVRAGQEPLLIAADMGDCLFTAMDMIDAGLMAPGYYAGMGFGVPAGIGAQCVSGGKRILTVVGDGAFQMTGWELGNCRRLGIDPIVILFNNASWEMLRTFQPESAFNDLDDWRFADMAAGMGGDGVRVRTRAELKAALDKAFATRGRFQLIEAMIPRGVLSDTLARFVQGIKRLHAAPRE
notes: made in house; host or cells: E. coli BL21(DE3)
K0.5 [2]: 0.69 ± 0.09 mM | kcat [2]: 1.05 ± 0.05 s⁻¹ | kcat/Km [2]: 1530 ± 217 M⁻¹ s⁻¹ | K0.5 [3]: 0.71 ± 0.07 mM | kcat [3]: 0.533 ± 0.0183 s⁻¹ | kcat/Km [3]: 750 ± 83 M⁻¹ s⁻¹

B2: Azospirillum brasilense phenylpyruvate decarboxylase (AbPPDC), wild type, SEQ ID 4 (GenBank L26240), 13-amino acid N-terminal histidine tag (Azospirillum … (protein)
chain: MKLAEALLRALKDRGAQAMFGIPGDFALPFFKVAEETQILPLHTLSHEPAVGFAADAAARYSSTLGVAAVTYGAGAFNMVNAVAGAYAEKSPVVVISGAPGTTEGNAGLLLHHQGRTLDTQFQVFKEITVAQARLDDPAKAPAEIARVLGAARALSRPVYLEIPRNMVNAEVEPVGDDPAWPVDRDALAACADEVLAAMRSATSPVLMVCVEVRRYGLEAKVAELAQRLGVPVVTTFMGRGLLADAPTPPLGTYIGVAGDAEITRLVEESDGLFLLGAILSDTNFAVSQRKIDLRKTIHAFDRAVTLGYHTYADIPLAGLVDALLEGLPPSDRTTRGKEPHAYPTGLQADGEPIAPMDIARAVNDRVRAGQEPLLIAADMGDCLFTAMDMIDAGLMAPGYYAGMGFGVPAGIGAQCVSGGKRILTVVGDGAFQMTGWELGNCRRLGIDPIVILFNNASWEMLRTFQPESAFNDLDDWRFADMAAGMGGDGVRVRTRAELKAALDKAFATRGRFQLIEAMIPRGVLSDTLARFVQGQKRLHAAPRE
notes: as for B1
K0.5 [4]: 1.23 ± 0.02 mM | kcat [4]: 0.333 ± 0 s⁻¹ | kcat/Km [4]: 270 ± 6.7 M⁻¹ s⁻¹ | K0.5 [5]: 1.7 ± 0.1 mM | kcat [5]: 0.25 ± 0.012 s⁻¹ | kcat/Km [5]: 150 ± 12 M⁻¹ s⁻¹

B3: Azospirillum brasilense phenylpyruvate decarboxylase (AbPPDC) variant F385L, SEQ ID 8 (Azospirillum brasilense; F385L) (protein)
chain: MKLAEALLRALKDRGAQAMFGIPGDFALPFFKVAEETQILPLHTLSHEPAVGFAADAAARYSSTLGVAAVTYGAGAFNMVNAVAGAYAEKSPVVVISGAPGTTEGNAGLLLHHQGRTLDTQFQVFKEITVAQARLDDPAKAPAEIARVLGAARALSRPVYLEIPRNMVNAEVEPVGDDPAWPVDRDALAACADEVLAAMRSATSPVLMVCVEVRRYGLEAKVAELAQRLGVPVVTTFMGRGLLADAPTPPLGTYIGVAGDAEITRLVEESDGLFLLGAILSDTNFAVSQRKIDLRKTIHAFDRAVTLGYHTYADIPLAGLVDALLEGLPPSDRTTRGKEPHAYPTGLQADGEPIAPMDIARAVNDRVRAGQEPLLIAADMGDCLLTAMDMIDAGLMAPGYYAGMGFGVPAGIGAQCVSGGKRILTVVGDGAFQMTGWELGNCRRLGIDPIVILFNNASWEMLRTFQPESAFNDLDDWRFADMAAGMGGDGVRVRTRAELKAALDKAFATRGRFQLIEAMIPRGVLSDTLARFVQGQKRLHAAPRE
notes: as for B1
K0.5 [6]: 2.39 ± 0.26 mM | kcat [6]: 0.283 ± 0.017 s⁻¹ | kcat/Km [6]: 117 ± 16.7 M⁻¹ s⁻¹ | K0.5 [7]: 2.3 ± 0.5 mM | kcat [7]: 0.0283 ± 0.005 s⁻¹ | kcat/Km [7]: 13 ± 3.3 M⁻¹ s⁻¹

B4: Azospirillum brasilense phenylpyruvate decarboxylase (AbPPDC) variant M461L, SEQ ID 18 (Azospirillum brasilense; M461L) (protein)
chain: MKLAEALLRALKDRGAQAMFGIPGDFALPFFKVAEETQILPLHTLSHEPAVGFAADAAARYSSTLGVAAVTYGAGAFNMVNAVAGAYAEKSPVVVISGAPGTTEGNAGLLLHHQGRTLDTQFQVFKEITVAQARLDDPAKAPAEIARVLGAARALSRPVYLEIPRNMVNAEVEPVGDDPAWPVDRDALAACADEVLAAMRSATSPVLMVCVEVRRYGLEAKVAELAQRLGVPVVTTFMGRGLLADAPTPPLGTYIGVAGDAEITRLVEESDGLFLLGAILSDTNFAVSQRKIDLRKTIHAFDRAVTLGYHTYADIPLAGLVDALLEGLPPSDRTTRGKEPHAYPTGLQADGEPIAPMDIARAVNDRVRAGQEPLLIAADMGDCLFTAMDMIDAGLMAPGYYAGMGFGVPAGIGAQCVSGGKRILTVVGDGAFQMTGWELGNCRRLGIDPIVILFNNASWELLRTFQPESAFNDLDDWRFADMAAGMGGDGVRVRTRAELKAALDKAFATRGRFQLIEAMIPRGVLSDTLARFVQGQKRLHAAPRE
notes: as for B1
K0.5 [8]: 0.97 ± 0.04 mM | kcat [8]: 0.467 ± 0.017 s⁻¹ | kcat/Km [8]: 483 ± 23.3 M⁻¹ s⁻¹ | K0.5 [9]: 1.4 ± 0.1 mM | kcat [9]: 0.2 ± 0.0083 s⁻¹ | kcat/Km [9]: 148 ± 12 M⁻¹ s⁻¹
